In patent US20150355199A1 (ROCHE DIAGNOSTICS OPERATIONS, published 2015):

How the values were obtained:
CFHR5-GS-Avi-GS-His8 = target: T1, CFHR5-GS-Avi-GS-His8 (human, UniProt Q9BXR6 19-569); experiment: SPR (BiaCore), antibody captured by rabbit anti-mouse IgG on CM5 chip, antigen in solution
T1 construct: Tagged recombinant protein from HEK293 cells; also called recombinant CFHR5
T1 sequence: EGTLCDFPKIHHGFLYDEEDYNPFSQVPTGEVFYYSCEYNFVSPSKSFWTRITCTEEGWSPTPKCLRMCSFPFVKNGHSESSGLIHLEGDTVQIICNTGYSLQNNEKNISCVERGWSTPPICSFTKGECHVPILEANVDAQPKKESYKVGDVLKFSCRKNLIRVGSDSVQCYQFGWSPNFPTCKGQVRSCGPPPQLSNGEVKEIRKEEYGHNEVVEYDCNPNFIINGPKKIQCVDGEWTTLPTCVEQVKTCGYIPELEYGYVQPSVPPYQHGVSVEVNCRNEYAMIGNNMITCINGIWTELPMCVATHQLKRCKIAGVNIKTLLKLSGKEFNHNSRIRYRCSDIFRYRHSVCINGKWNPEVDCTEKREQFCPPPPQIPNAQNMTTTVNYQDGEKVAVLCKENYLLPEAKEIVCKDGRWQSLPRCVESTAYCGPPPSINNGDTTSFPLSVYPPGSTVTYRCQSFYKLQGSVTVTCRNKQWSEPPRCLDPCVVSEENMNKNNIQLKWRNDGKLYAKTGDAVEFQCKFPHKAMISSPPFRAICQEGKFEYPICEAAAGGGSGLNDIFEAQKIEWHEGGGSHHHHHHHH
Method: (§1) The antibodies MAB<CFH/CFHR1>M-L20/3, MAB<CFHR1>M-442127, MAB<CFHR1>M-4.1.3 and MAB<CFHR1>M-5.1.5 were analyzed on the BiaCore. The chip CM5 coated with a rabbit anti-Mouse IgG was used to bind the purified monoclonal mouse antibodies. In the next step native CFH or the recombinant CFHR1, CFHR2, CFHR3, CFHR4B or CFHR5 proteins according to SEQ ID No.: 9 to 13 were added to determine the binding affinities of the different antibodies.

[1] = target: T2, recombinant CFHR1-1-5 (tag-less, full-length mature human complement factor H-related protein 1) (human, UniProt Q03591 19-330); experiment: as above
T2 construct: also called recCFHR1
T2 sequence: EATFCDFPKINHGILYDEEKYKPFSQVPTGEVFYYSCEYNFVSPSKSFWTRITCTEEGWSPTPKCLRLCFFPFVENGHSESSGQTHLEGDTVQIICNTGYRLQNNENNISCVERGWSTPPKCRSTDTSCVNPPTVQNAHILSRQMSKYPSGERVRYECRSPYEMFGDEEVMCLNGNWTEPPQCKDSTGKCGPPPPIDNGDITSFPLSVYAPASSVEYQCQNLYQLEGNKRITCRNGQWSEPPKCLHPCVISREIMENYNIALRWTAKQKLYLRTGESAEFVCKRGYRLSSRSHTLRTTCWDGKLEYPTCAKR
Method: as §1

[2] = target: T3, native human complement factor H (CFH) (human, UniProt P08603 19-1231); experiment: as above
T3 construct: Native CFH; also called native CFH; serum-purified CFH
Method: as §1

CFHL1-GS-Avi-GS-His8 = target: T4, CFHL1-GS-Avi-GS-His8 (human, UniProt P08603 19-445); experiment: SPR (BiaCore), antibody captured by rabbit anti-mouse IgG on CM5 chip; n.d. = not detectable
T4 construct: also called complement factor H isoform 2
Method: as §1

CFHR2-GS-Avi-GS-His8 = target: T5, CFHR2-GS-Avi-GS-His8 (human); experiment: as above
T5 construct: Tagged recombinant protein from HEK293 cells; also called recombinant CFHR2
T5 chain: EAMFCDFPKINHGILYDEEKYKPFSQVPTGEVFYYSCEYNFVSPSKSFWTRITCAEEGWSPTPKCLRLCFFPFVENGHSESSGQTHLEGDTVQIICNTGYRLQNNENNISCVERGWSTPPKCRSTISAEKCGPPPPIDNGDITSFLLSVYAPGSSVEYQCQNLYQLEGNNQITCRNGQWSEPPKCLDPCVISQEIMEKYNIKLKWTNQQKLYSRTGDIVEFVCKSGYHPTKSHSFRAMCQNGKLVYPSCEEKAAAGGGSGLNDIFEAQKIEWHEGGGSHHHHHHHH
Method: as §1

CFHR3-GS-Avi-GS-His8 = target: T6, CFHR3-GS-Avi-GS-His8 (human, UniProt Q02985 19-330); experiment: as above
T6 construct: Tagged recombinant protein from HEK293 cells; also called recombinant CFHR3
T6 sequence: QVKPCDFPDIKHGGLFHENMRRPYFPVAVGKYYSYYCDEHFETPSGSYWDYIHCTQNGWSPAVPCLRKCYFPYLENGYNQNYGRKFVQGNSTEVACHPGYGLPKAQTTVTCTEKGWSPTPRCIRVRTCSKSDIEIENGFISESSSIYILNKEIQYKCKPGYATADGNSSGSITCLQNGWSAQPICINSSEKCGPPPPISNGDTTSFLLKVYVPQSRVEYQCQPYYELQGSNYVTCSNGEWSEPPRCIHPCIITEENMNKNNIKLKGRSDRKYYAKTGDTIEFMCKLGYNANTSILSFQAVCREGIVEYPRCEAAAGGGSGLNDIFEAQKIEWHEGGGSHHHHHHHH
Method: as §1

[3] = target: T7, CFHR4-GS-Avi-GS-His8 (CFHR4 Variant B) (human); experiment: as above
T7 construct: Tagged recombinant protein from HEK293 cells; also called CFHR4B; recombinant CFHR4B
T7 chain: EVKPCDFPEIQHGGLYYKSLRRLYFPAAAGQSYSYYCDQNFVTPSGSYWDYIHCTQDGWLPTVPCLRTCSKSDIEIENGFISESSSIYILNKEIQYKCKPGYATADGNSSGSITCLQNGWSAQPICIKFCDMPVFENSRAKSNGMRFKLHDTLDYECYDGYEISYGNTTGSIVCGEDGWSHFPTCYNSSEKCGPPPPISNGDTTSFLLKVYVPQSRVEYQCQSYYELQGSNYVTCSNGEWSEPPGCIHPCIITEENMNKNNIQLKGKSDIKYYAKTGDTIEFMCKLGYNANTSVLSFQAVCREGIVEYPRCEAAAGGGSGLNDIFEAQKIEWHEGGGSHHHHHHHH
Method: as §1

B1: MAB<CFH/CFHR1>M-L20/3 (antibody, V domains shown)
VH: EVLLQQSGPELVKPGASVKIPCKASGYTFTDYNMDWVKQSHGKSLEWIGDINPNNGFTIYNQKFKGKATLTVDKSSSTAYMELRSLTSEDTAIYYCAINWDWFAYWGQGTLVTVSA
VL: DVLMTQTPLSLPVSLGDQASISCRSSQSIVHNNGNTYLEWYLLKPGQSPKLLIYKVSNRFSGVPDRFSGSGSGTDFTLKISRVEAEDLGVYYCFQGSHVPYTFGGGTKLEIKR
notes: Bought monoclonal mouse IgG; also called anti-Complement Factor H, Clone: L20/3; Thermo Scientific cat. no; GAU 020-03-02
Binder B1 has a Kd (CFHR5-GS-Avi-GS-His8) of 10 nM, a Kd [1] of 0.1 nM and a Kd [2] of 8 nM. B1: no binding (CFHL1-GS-Avi-GS-His8); no binding (CFHR2-GS-Avi-GS-His8); no binding (CFHR3-GS-Avi-GS-His8). B1: no binding [3].
